{"source": "IntAct's records for PubMed 11880648", "parents": {"B1": {"name": "RNA polymerase sigma factor SigA (Mycobacterium tuberculosis (strain ATCC 25618 / P9WGI1 (parent)", "chain": "MAATKASTATDEPVKRTATKSPAASASGAKTGAKRTAAKSASGSPPAKRATKPAARSVKPASAPQDTTTSTIPKRKTRAAAKSAAAKAPSARGHATKPRAPKDAQHEAATDPEDALDSVEELDAEPDLDVEPGEDLDLDAADLNLDDLEDDVAPDADDDLDSGDDEDHEDLEAEAAVAPGQTADDDEEIAEPTEKDKASGDFVWDEDESEALRQARKDAELTASADSVRAYLKQIGKVALLNAEEEVELAKRIEAGLYATQLMTELSERGEKLPAAQRRDMMWICRDGDRAKNHLLEANLRLVVSLAKRYTGRGMAFLDLIQEGNLGLIRAVEKFDYTKGYKFSTYATWWIRQAITRAMADQARTIRIPVHMVEVINKLGRIQRELLQDLGREPTPEELAKEMDITPEKVLEIQQYAREPISLDQTIGDEGDSQLGDFIEDSEAVVAVDAVSFTLLQDQLQSVLDTLSEREAGVVRLRFGLTDGQPRTLDEIGQVYGVTRERIRQIESKTMSKLRHPSRSQVLRDYLD", "partner": "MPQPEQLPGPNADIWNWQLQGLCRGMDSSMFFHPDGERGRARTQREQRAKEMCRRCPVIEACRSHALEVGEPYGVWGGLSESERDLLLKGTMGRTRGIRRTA"}}}
{"variants_of": "B1", "conditions": "with whib3_myctu whiB3, P9WF41"}
{"variant": "R515H", "effect of a mutation on the interaction": "disrupting interaction strength"}
